In patent US20260042850A1 (LOCKBODY THERAPEUTICS, published 2026):

B1: h224G11 (humanized 224G11) (antibody, human IgG4, V domains shown)
VH: QVQLVQSGAEVKKPGASVKVSCKASGYIFTAYTMHWVRQAPGQGLEWMGWIKPNNGLANYAQKFQGRVTMTRDTSISTAYMELSRLRSDDTAVYYCARSEITTEFDYWGQGTLVTVSS
VL: DIVMTQSPDSLAVSLGERATINCKSSESVDSYANSFLHWYQQKPGQPPKLLIYRASTRESGVPDRFSGSGSGTDFTLTISSLQAEDVAVYYCQQSKEDPLTFGGGTKVEIK
notes: also called Humanized h224G11; 224G11 IgG4(S228P)
B2: MH7-2 (antibody, human IgG4, V domains shown)
VH: QVQLVQSGAEVKKPGASVKVSCKASGYTFTSYTMHWVRQAPGQGLEWMGIINPSGGSTSYAQKFQGRVTMTRDTSTSTVYMELSSLRSEDTAVYYCARQEITTEFDYWGQGTLVTVSS
VL: EIVLTQSPGTLSLSPGERATLSCRASQSVSSYANSYLHWYQQKPGQAPRLLIYRGSTRETGIPDRFSGSGSGTDFTLTISRLEPEDFAVYYCQQSKESPLTFGGGTKVEIK
B3: MH9 (antibody, IgG4, V domains shown)
VH: QVQLVQSGAEVKKPGASVKVSCKASGYTFTSYTMHWVRQAPGQGLEWMGIINPSGGSTSYAQKFQGRVTMTRDTSTSTVYMELSSLRSEDTAVYYCARQEITTEFDYWGQGTLVTVSS
VL: EIVLTQSPGTLSLSPGERATLSCRASQSVSSYAQSYLHWYQQKPGQAPRLLIYRGSTRETGIPDRFSGSGSGTDFTLTISRLEPEDFAVYYCQQYGSSPLTFGGGTKVEIK
B4: MH8 (antibody, IgG4, V domains shown)
VH: QVQLVQSGAEVKKPGASVKVSCKASGYTFTSYTMHWVRQAPGQGLEWMGIINPSGGSTSYAQKFQGRVTMTRDTSTSTVYMELSSLRSEDTAVYYCARQEITTEFDYWGQGTLVTVSS
VL: EIVLTQSPGTLSLSPGERATLSCRASQSVSSYAQSYLHWYQQKPGQAPRLLIYRGSTRETGIPDRFSGSGSGTDFTLTISRLEPEDFAVYYCQQSGSSPLTFGGGTKVEIK

Assays:
Insulin = target: T1, Insulin; assay: polyreactivity ELISA on insulin; parameters: scale not given here
T1 construct: Coated surface of the polyreactivity (development risk) ELISA

[1] = target: T2, human C-MET on stably transfected CHO-K1 cells (human, UniProt P08581 25-1390); assay: flow cytometry, C-MET CHO-K1 cells
T2 construct: also called hucMET; human C-MET+ CHO-K1 cells
Method: (§1) Purified IgGs were tested in FACs for binding to human and cyno C-MET expressed on CHO-K1 stable cell lines and CHO-K1 wild-type cells. The IgG samples were titrated in three-fold serial dilutions starting at 500 nM to 0.08 nM. Binding of IgGs was detected with a mouse anti-human IgG conjugated to FITC. Results were analyzed by examining the Mean Fluorescence Intensity (MFI) of 10000 cells per sample in the BL-1 channel detector of a flow cytometer (Attune™ NxT Acoustic Focusing Cytometer, Invitrogen/ThermoFisher Scientific).
(§2) Antibodies to C-MET were analysed for concentration-dependent binding at the cell surface via flow cytometry. CHO-K1 cells were stably transfected with either human or cyno C-MET full-length cDNAs. Anti-C-MET IgGs and an isotype control IgG4(S228P) were then all tested in IgG4(S228P) format, over a concentration range of 500-0.08 nM for binding to human (FIG. 5A) and cyno (FIG. 5B) CHO-K1 cells.

[2] = target: T3, cynomolgus monkey C-MET on stably transfected CHO-K1 cells (cynomolgus monkey, UniProt A0M8R7 25-1381 (Papio anubis entry)); assay: flow cytometry, C-MET CHO-K1 cells
T3 construct: also called cycMET; cyno C-MET+ CHO-K1 cells
Method: as §1, §2

[3] = target: T2, human C-MET on stably transfected …; assay: flow cytometry, C-MET CHO-K1 cells; remark: listed apart in the source
Method: as §1

[4] = target: T3, cynomolgus monkey C-MET on stably …; assay: flow cytometry, C-MET CHO-K1 cells; remark: listed apart in the source
Method: as §1

[5] = target: T4, human C-MET His tagged, monomeric (human, UniProt P08581 25-932); assay: SPR Biacore, IgG captured, monomeric C-MET-His analyte
T4 construct: also called monomeric human C-MET; biotinylated human C-MET-His
Method: (§3) Affinity (KD) of purified IgGs was determined via SPR with antigen in-solution on a Biacore® 3000 (GE). A mouse anti-human antibody (CH1 specific) was immobilized on a CM5 Sensor Chip to a level of 2000 RU in acetate buffer at pH 4.5 using amine coupling following the Wizard instructions for two channels. One channel was used for background signal correction. The standard running buffer HBS-EP pH 7.4 was used. Regeneration was performed with a single injection of 10 μl of 10 mM Glycine at pH 1.5 at 20 μl/minute. IgG samples were injected for 2 minutes at 50 nM at 30 μl/min followed by and off-rate of 60 seconds. The monomeric antigen (human C-MET His tagged or cynomolgus monkey C-MET His tag) was injected in two fold serial dilutions from 100 nM down to 6 nM, for 2 minutes at 30 μl/min followed by an off-rate of 300 seconds. The obtained sensorgrams were analysed using the Biacore® 3000 evaluation (BIAevaluation) software. The KD was calculated by simultaneous fitting of the association and dissociation phases to a 1:1 Langmuir binding model.

[6] = target: T5, cynomolgus monkey C-MET His tag, monomeric (cynomolgus monkey, UniProt A0M8R7 25-932 (Papio anubis entry)); assay: as above
T5 construct: also called monomeric cyno C-MET; cyCMET
Method: as §3

[7] = target: T6, cynomolgus monkey C-MET human Fc tagged recombinant protein (cynomolgus monkey, UniProt A0M8R7 25-932 (Papio anubis entry), limits assumed); assay: direct titration ELISA on coated cyno C-MET-Fc, IgG4(S228P), OD 450 nm
T6 construct: also called cyno C-MET-Fc; cyCMET
Source text: (§4) FIG. 6A-FIG. 6B. Direct titration ELISA for IgG binding to human and cyno C-MET-Fc proteins. Humanized h224G11, Grafted clone (Graft) and clones 08G07, MH7, MH7-1, MH7-2, MH7-3 in human IgG4(S228P) format were titrated (in nM) in a direct binding ELISA against human (FIG. 6A) and cyno (FIG. 6B) C-MET-Fc proteins.
(§5) Binding and cross-reactivity of the lead panel to the recombinant proteins was initially assessed by binding ELISA. The human C-MET human Fc tagged recombinant protein and the cynomolgus monkey C-MET human Fc tagged recombinant protein were coated to the surface of MaxiSorp™ flat-bottom 96 well plate at 1 μg/ml. The purified IgG samples were titrated in two fold serial dilutions starting from 500 nM to 0.98 nM and allowed to bind to the coated antigens. The Fabs were detected using mouse anti-c-myc antibody followed by donkey anti-mouse IgG conjugated to horseradish peroxidase. The IgGs were detected using the mouse anti-human IgG conjugated to horseradish peroxidase. Binding signals were visualized with 3,3′,5,5′-Tetramethylbenzidine Substrate Solution (TMB) and the absorbance measured at 450 nm. IgG binding analysis via ELISA on negatively charged biomolecular surfaces to calculate off-target binding and PK risk were performed as previously described (see Avery et al., 2018, MAbs 10 (2), 244-255).

[8] = target: T7, human C-MET human Fc tagged recombinant protein (human, UniProt P08581 25-932); assay: direct titration ELISA on coated human C-MET-Fc, IgG4(S228P), OD 450 nm
T7 construct: also called human C-MET-Fc; huCMET
Source text: as §4, §5

[9] = target: T3, cynomolgus monkey C-MET on stably …; assay: flow cytometry on cyno C-MET-transfected CHO-K1 cells, IgG4(S228P), MFI
Method: FIG. 8A-FIG. 8C. Flow cytometric binding to human and cyno C-MET+ CHO-K1 cells for library-derived and primary designer leads. Humanized h224G11, Grafted clone (Graft) and clones 08G07, MH7, MH7-1, MH7-2, MH7-3 in human IgG4(S228P) format were examined for specific binding on human C-MET-transfected (FIG. 8A), cyno C-MET-transfected (FIG. 8B) and untransfected (FIG. 8C) CHO-K1 cells. IgGs were tested at concentrations ranging from 500-0.08 nM. Concentration-dependent binding was observed against both human and cyno cell lines for all C-MET-specific antibodies but not isotype control IgG4.
as §1

[10] = target: T4, human C-MET His tagged, monomeric; assay: Alphascreen epitope competition in solution: varied IgG4(S228P) against 224G11 IgG4(S228P) binding to biotinylated human C-MET, CPS (crosstalk-corrected)
Method: FIG. 7. Epitope competition analysis of IgG4(S228P) proteins in Alphascreen. Anti-Humanized h224G11, Grafted clone (Graft) and clones 08G07, MH7, MH7-1, MH7-2, MH7-3 in human IgG4(S228P) format were titrated (in nM) in an epitope competition assay using Alphascreen technology. In this assay, library-derived and designer IgGs were analysed for their retention of the parental 224G11 epitope by competing for 224G11 IgG4(S228P) binding to human C-MET protein, in solution.
The AlphaScreen assay (Perkin Elmer) was performed in a 25 μl final volume in 384-well white microtiter plates (Greiner). The reaction buffer contained 1×PBS pH 7.3 (Oxoid, Cat. nr. BR0014G) and 0.05% (v/v) Tween® 20 (Sigma, Cat. nr. P9416). Purified IgG samples were titrated in three fold serial dilutions starting at 50 nM final concentration and incubated with biotinylated human C-MET-His (Acrobiosystems) at 1 nM final concentration for 20 minutes at room temperature. The parental IgG and the anti-human IgG4(S228P) Acceptor beads at were added and the mix was incubated for 1 hour at room temperature. Followed by addition of the Streptavidin Donor beads and incubation for 30 minutes at room temperature. The emission of light was measured in the EnVision multilabel plate reader (Perkin Elmer) and analysed using the EnVision manager software. Values were reported as Counts Per Second (CPS) and corrected for crosstalk. […]

[11] = target: T4, human C-MET His tagged, monomeric; assay: SPR Biacore
Method: as §3

[12] = target: T5, cynomolgus monkey C-MET His tag, …; assay: SPR Biacore
Method: as §3

T4 sequence (P08581 25-932): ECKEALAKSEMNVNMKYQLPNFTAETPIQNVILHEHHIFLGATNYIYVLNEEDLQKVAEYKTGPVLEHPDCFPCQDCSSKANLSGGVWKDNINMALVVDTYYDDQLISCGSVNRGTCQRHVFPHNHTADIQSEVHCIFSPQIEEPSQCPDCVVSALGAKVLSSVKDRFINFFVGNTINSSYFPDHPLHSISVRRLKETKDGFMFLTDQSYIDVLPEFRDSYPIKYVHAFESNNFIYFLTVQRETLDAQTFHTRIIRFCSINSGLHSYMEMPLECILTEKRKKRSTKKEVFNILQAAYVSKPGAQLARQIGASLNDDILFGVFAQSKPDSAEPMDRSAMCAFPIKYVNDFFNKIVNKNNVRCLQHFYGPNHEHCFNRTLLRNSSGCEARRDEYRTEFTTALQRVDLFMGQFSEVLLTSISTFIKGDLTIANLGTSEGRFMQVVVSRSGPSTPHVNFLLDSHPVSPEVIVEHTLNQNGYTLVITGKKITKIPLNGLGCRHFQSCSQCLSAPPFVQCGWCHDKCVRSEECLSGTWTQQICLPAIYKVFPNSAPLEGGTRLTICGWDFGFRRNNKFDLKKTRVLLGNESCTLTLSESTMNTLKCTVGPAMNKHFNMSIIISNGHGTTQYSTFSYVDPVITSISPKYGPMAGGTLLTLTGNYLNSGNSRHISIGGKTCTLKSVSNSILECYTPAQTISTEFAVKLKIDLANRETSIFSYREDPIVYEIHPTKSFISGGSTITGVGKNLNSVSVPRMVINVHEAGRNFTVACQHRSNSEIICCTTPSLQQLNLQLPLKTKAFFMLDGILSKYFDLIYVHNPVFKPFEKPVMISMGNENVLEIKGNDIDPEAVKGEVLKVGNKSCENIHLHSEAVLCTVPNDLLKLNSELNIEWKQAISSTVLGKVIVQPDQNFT
T5 sequence (A0M8R7 25-932 S170N/I621T): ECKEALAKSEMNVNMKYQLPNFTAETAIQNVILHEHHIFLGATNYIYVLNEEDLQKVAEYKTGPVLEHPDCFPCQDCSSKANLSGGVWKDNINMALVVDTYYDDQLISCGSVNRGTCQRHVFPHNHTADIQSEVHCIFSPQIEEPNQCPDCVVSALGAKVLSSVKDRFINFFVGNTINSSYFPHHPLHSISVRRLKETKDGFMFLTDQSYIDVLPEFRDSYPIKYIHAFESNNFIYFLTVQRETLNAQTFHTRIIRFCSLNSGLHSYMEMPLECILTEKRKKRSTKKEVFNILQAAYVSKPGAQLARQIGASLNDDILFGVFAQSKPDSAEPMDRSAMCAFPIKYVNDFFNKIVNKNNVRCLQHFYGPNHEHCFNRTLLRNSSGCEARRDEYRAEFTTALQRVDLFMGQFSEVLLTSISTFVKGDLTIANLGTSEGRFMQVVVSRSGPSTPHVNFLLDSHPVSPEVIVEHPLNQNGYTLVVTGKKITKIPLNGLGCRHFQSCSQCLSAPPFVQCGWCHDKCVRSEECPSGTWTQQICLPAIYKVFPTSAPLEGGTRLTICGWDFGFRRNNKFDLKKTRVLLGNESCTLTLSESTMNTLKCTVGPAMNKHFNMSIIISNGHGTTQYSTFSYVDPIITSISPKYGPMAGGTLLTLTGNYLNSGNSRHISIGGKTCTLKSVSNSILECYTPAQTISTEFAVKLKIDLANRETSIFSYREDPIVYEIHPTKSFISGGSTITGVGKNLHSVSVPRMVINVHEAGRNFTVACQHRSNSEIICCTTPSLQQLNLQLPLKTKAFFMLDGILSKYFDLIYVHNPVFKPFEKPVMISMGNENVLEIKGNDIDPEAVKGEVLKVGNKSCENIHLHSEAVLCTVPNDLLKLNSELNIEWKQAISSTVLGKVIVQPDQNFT
T3 sequence (A0M8R7 25-1381 S170N/I621T limits assumed): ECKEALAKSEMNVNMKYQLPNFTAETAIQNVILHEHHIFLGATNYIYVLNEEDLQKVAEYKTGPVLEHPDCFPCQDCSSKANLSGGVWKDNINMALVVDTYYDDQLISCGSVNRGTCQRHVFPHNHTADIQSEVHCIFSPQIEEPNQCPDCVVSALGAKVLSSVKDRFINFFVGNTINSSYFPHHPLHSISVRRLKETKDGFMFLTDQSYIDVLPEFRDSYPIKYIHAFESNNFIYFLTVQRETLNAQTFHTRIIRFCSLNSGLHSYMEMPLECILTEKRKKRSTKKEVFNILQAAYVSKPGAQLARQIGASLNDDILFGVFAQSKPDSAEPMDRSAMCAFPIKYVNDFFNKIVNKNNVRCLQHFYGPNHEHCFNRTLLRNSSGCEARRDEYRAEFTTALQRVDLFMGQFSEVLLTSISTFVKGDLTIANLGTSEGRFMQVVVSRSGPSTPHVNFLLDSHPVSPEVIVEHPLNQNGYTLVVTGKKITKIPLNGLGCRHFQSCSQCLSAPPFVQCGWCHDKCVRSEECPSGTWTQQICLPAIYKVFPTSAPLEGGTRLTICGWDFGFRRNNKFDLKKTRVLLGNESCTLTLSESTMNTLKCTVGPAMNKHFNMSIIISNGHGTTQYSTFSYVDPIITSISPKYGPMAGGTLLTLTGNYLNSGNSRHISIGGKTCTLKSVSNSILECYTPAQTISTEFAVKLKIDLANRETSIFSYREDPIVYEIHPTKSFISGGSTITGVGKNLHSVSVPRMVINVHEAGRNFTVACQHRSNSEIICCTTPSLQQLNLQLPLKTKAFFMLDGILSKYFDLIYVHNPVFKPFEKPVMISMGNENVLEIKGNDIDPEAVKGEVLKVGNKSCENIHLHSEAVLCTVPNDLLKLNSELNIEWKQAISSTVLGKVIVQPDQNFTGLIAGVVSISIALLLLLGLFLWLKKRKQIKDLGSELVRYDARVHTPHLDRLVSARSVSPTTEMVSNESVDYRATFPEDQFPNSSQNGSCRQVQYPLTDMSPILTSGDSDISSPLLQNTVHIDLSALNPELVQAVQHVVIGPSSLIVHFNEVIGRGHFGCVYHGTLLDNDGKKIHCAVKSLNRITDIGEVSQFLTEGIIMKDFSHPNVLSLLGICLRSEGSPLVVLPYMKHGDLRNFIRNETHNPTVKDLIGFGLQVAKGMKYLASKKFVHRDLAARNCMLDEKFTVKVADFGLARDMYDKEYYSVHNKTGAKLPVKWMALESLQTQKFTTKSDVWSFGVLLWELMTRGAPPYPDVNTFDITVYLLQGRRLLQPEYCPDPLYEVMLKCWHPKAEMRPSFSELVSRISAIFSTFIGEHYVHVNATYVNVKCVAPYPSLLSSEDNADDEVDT
T2 sequence (P08581 25-1390 limits assumed): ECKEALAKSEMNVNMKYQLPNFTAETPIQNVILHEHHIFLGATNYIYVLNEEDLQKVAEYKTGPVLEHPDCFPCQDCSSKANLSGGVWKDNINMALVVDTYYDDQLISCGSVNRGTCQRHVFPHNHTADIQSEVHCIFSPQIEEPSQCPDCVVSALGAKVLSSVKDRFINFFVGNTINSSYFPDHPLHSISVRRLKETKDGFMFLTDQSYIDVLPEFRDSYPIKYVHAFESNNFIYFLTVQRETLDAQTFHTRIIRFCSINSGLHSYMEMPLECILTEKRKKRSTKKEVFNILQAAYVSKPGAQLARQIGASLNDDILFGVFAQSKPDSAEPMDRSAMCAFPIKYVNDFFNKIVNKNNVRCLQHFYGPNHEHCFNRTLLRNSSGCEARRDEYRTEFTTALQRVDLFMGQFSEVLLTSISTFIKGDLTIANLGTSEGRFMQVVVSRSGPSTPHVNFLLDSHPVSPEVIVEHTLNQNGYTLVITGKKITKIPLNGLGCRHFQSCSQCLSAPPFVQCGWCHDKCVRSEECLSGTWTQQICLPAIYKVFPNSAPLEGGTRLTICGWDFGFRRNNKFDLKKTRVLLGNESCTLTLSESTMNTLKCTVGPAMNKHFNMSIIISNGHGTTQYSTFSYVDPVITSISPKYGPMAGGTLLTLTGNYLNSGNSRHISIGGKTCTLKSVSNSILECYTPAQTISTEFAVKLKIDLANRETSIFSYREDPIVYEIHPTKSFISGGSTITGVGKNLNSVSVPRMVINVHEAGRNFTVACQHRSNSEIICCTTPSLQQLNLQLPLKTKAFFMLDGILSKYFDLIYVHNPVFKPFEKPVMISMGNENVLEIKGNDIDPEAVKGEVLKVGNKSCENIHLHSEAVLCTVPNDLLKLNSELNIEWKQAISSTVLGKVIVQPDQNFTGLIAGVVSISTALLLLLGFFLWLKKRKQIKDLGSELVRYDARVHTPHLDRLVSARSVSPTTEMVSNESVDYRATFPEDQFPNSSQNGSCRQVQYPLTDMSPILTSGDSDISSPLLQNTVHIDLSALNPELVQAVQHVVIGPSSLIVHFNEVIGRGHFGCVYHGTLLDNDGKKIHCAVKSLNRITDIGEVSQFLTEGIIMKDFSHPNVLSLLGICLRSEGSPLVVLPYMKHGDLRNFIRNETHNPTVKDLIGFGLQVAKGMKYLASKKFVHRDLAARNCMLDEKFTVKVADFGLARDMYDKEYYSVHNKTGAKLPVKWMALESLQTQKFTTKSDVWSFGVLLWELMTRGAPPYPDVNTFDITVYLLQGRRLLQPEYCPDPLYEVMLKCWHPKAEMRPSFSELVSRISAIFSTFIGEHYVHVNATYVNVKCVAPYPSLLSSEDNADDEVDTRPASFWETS
T7 sequence (P08581 25-932 limits assumed): as the sequence (P08581 25-932) above
T1 sequence (P01308 25-54, chain 1 of 2): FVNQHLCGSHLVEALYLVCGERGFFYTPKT
T1 sequence (P01308 90-110, chain 2 of 2): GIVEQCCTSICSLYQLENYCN
T6 sequence (A0M8R7 25-932 S170N/I621T limits assumed): as the sequence (A0M8R7 25-932 S170N/I621T) above

| Binder | reactivity score (Insulin) | maximum MFI, fold over Isotype IgG4 background [1] [fold] | maximum MFI, fold over Isotype IgG4 background [2] [fold] | EC50 [3] [nM] | EC50 [4] [nM] | Kd [5] [nM] | koff [5] [s⁻¹] | kon [5] [M⁻¹ s⁻¹] | Kd [6] [nM] | koff [6] [s⁻¹] | kon [6] [M⁻¹ s⁻¹] | EC50 (read off the curve) [7] [nM] | EC50 (read off the curve) [8] [nM] | EC50 (read off the curve) [9] [nM] | IC50 (read off the curve) [10] [nM] | fold loss of KD against MH7 [11] [fold] | fold loss of KD against MH7 [12] [fold] |
| --- | --- | --- | --- | --- | --- | --- | --- | --- | --- | --- | --- | --- | --- | --- | --- | --- | --- |
| B1 | 1 | > 10 | > 10 | 6.83 | 0.82 | 0.47 | 4.2e-05 | 90000 | 0.46 | 0.00011 | 250000 | ~0.2 | ~0.3 | ~0.7 | ~0.2 |  |  |
| B2 | 1 | > 10 | > 10 |  |  | 2.12 | 0.000198 | 93200 | 0.87 | 0.000159 | 183000 | ~0.2 | ~0.3 | ~0.5 |  |  |  |
| B3 |  | > 10 | > 10 | 1.23 | 0.65 | 6.6 | 0.00039 | 59000 | 4.3 | 0.00048 | 110000 |  |  |  |  | 10 to 20 | 10 to 20 |
| B4 |  | > 10 | > 10 | 1.24 | 0.57 | 2.2 | 0.00015 | 66000 | 1.3 | 0.00021 | 160000 |  |  |  |  | 10 to 20 | 10 to 20 |
